Source: US20080274978A1 (POSTECH FOUNDATION, published 2008)
Where no end group is shown, it is not given here. [ ]: non-standard residue; d: D form.

T1: Formyl peptide receptor like 1 (FPRL1) (human, UniProt P25090 1-351)
T1 sequence (looked up): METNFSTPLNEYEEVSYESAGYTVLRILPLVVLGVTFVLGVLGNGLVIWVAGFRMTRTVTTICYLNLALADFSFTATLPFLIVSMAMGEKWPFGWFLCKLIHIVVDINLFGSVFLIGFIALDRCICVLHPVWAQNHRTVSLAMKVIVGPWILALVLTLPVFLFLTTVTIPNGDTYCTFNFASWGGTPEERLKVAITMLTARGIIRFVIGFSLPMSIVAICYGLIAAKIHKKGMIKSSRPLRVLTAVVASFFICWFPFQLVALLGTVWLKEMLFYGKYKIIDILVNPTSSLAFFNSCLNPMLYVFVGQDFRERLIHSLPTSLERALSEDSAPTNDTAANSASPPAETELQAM


Each binder was assayed against T1, Formyl peptide receptor like 1 (FPRL1) (assay: cell-based or functional assay).

Row | antagonistic activity on intracellular calcium concentration increase, relative to WRWWWW (SEQ ID NO:4) [times] | Binder
1 | ~100 | [dW]WRWWM (not fully specified; printed as wWRWWM) [wWRWWM]

Biological target: T1, Formyl peptide receptor like 1 (FPRL1)
Assay: cell-based or functional assay
Remark: another data set of the same source

Row | Binder | Ca^2+ (FPRL1) IC50 [nM]
2 | [dW]WRWWW [wWRWWW] | 110
3 | WWWWMR | 5700
4 | RWW[dW] [RWWw] | > 10000
5 | WWRWWM | 83
6 | WWWM | 5900
7 | WRWW | > 10000
8 | RWWW | 600
9 | WWW[dW] [WWWw] | > 10000
10 | WWRWWW | 58
11 | WRW | > 10000
12 | WRRWWW | > 10000
13 | RWWM | 650
14 | WWWWWW | > 10000
15 | WWWWWM | 130
16 | LRWWWW | 1100
17 | WWWWRW | 2700
18 | WWWRWW | 470

Further lines, results first:

Row | Ca^2+ (FPRL1) IC50 [nM] | Binder
19 | > 10000 | WWWWW[dW] [WWWWWw]
20 | 860 | WWWW
21 | 220 | WWWWWR
22 | 500 | LWWWWW
23 | 8.2 | [dW]WRWWM (not fully specified; printed as wWRWWM) [wWRWWM]
24 | 1000 | WRWWWW-NH2 [Trp-Arg-Trp-Trp-Trp-Trp-CONH2 (WRWWWW, WRW^4)]

The binders below were run against T1, Formyl peptide receptor like 1 (FPRL1) (assay: displacement of 125I-WKYMVm (50 pM) from FPRL1-expressing RBL-2H3 cells).
Method: Ligand binding analysis was performed as previously described (24). Briefly, FPR-expressing RBL-2H3 cells were seeded at 1×10⁵ cells per well into a 24 well plate and cultured overnight. […] The samples were then washed 5 times with ice-cold binding buffer, and 200 μl of lysis buffer (20 mM Tris, pH 7.5, 1% Triton X-100) was added to each well. After 20 min at room temperature, the lysates were collected and counted using a γ-ray counter (24).

Row | IC50 [nM] | Binder
25 | 2400 | RRWWWW-NH2 [Arg-Arg-Trp-Trp-Trp-Trp-CONH2 (RRWWWW, RRW^4)]
26 | 230 | WRWWWW-NH2 [Trp-Arg-Trp-Trp-Trp-Trp-CONH2 (WRWWWW, WRW^4)]
27 | 3200 | RHWWWW-NH2 [Arg-His-Trp-Trp-Trp-Trp-CONH2 (RHWWWW, RHW^4)]
28 | 3400 | DRWWWW-NH2 [Asp-Arg-Trp-Trp-Trp-Trp-CONH2 (DRWWWW, DRW^4)]
